# Laboratory results as given in US20250171562A1.
# B1: NIgG4D1A1(RS) (Fc fusion)
# chain 1: DVQLQESGGGLVQAGGSLRLSCAASGLTFSRCDMGWFRQAPGKEREFVARISANGASTHYADFVKGRFTISRDNAKNTVYLQMNYLKPEDTAVYICAAARVPVTWQLYDYWGQGTQVTVSRSGPPCPPCPAPEFLGGPSVFLFPPKPKDTLMISRTPEVTCVVVDVSQEDPEVQFNWYVDGVEVHNAKTKPREEQFNSTYRVVSVLTVLHQDWLNGKEYKCKVSNKGLPSSIEKTISKAKGQPREPQVYTLPPCQEEMTKNQVSLWCLVKGFYPSDIAVEWESNGQPENNYKTTPPVLDSDGSFFLYSRLTVDKSRWQEGNVFSCSVMHEALHNHYTQKSLSLSLGK
# chain 2: EVQLLESGGGLVQPGGSLRLSCAASGFTFGNYDMAWVRQAPGKRPEWVSSIDTGGDITHYADSVKGRFTISRDNAKNTLYLQMNSLRPEDTAVYWCATDEEYALGPNEFDYYGQGTLVTVSSRSGPPCPPCPAPEFLGGPSVFLFPPKPKDTLMISRTPEVTCVVVDVSQEDPEVQFNWYVDGVEVHNAKTKPREEQFNSTYRVVSVLTVLHQDWLNGKEYKCKVSNKGLPSSIEKTISKAKGQPREPQVCTLPPSQEEMTKNQVSLSCAVKGFYPSDIAVEWESNGQPENNYKTTPPVLDSDGSFFLVSRLTVDKSRWQEGNVFSCSVMHEALHNHYTQKSLSLSLGK
# B2: NIgG4D1A1(G4S)1 (Fc fusion)
# chain 1: DVQLQESGGGLVQAGGSLRLSCAASGLTFSRCDMGWFRQAPGKEREFVARISANGASTHYADFVKGRFTISRDNAKNTVYLQMNYLKPEDTAVYICAAARVPVTWQLYDYWGQGTQVTVSGGGGSGPPCPPCPAPEFLGGPSVFLFPPKPKDTLMISRTPEVTCVVVDVSQEDPEVQFNWYVDGVEVHNAKTKPREEQFNSTYRVVSVLTVLHQDWLNGKEYKCKVSNKGLPSSIEKTISKAKGQPREPQVYTLPPCQEEMTKNQVSLWCLVKGFYPSDIAVEWESNGQPENNYKTTPPVLDSDGSFFLYSRLTVDKSRWQEGNVFSCSVMHEALHNHYTQKSLSLSLGK
# chain 2: EVQLLESGGGLVQPGGSLRLSCAASGFTFGNYDMAWVRQAPGKRPEWVSSIDTGGDITHYADSVKGRFTISRDNAKNTLYLQMNSLRPEDTAVYWCATDEEYALGPNEFDYYGQGTLVTVSSGGGGSGPPCPPCPAPEFLGGPSVFLFPPKPKDTLMISRTPEVTCVVVDVSQEDPEVQFNWYVDGVEVHNAKTKPREEQFNSTYRVVSVLTVLHQDWLNGKEYKCKVSNKGLPSSIEKTISKAKGQPREPQVCTLPPSQEEMTKNQVSLSCAVKGFYPSDIAVEWESNGQPENNYKTTPPVLDSDGSFFLVSRLTVDKSRWQEGNVFSCSVMHEALHNHYTQKSLSLSLGK
# B3: NIgG4D1A1(G4S)2 (Fc fusion)
# chain 1: DVQLQESGGGLVQAGGSLRLSCAASGLTFSRCDMGWFRQAPGKEREFVARISANGASTHYADFVKGRFTISRDNAKNTVYLQMNYLKPEDTAVYICAAARVPVTWQLYDYWGQGTQVTVSGGGGSGGGGSGPPCPPCPAPEFLGGPSVFLFPPKPKDTLMISRTPEVTCVVVDVSQEDPEVQFNWYVDGVEVHNAKTKPREEQFNSTYRVVSVLTVLHQDWLNGKEYKCKVSNKGLPSSIEKTISKAKGQPREPQVYTLPPCQEEMTKNQVSLWCLVKGFYPSDIAVEWESNGQPENNYKTTPPVLDSDGSFFLYSRLTVDKSRWQEGNVFSCSVMHEALHNHYTQKSLSLSLGK
# chain 2: EVQLLESGGGLVQPGGSLRLSCAASGFTFGNYDMAWVRQAPGKRPEWVSSIDTGGDITHYADSVKGRFTISRDNAKNTLYLQMNSLRPEDTAVYWCATDEEYALGPNEFDYYGQGTLVTVSSGGGGSGGGGSGPPCPPCPAPEFLGGPSVFLFPPKPKDTLMISRTPEVTCVVVDVSQEDPEVQFNWYVDGVEVHNAKTKPREEQFNSTYRVVSVLTVLHQDWLNGKEYKCKVSNKGLPSSIEKTISKAKGQPREPQVCTLPPSQEEMTKNQVSLSCAVKGFYPSDIAVEWESNGQPENNYKTTPPVLDSDGSFFLVSRLTVDKSRWQEGNVFSCSVMHEALHNHYTQKSLSLSLGK
# B4: CIgG4D1A1(RS) (Fc fusion)
# chain 1: GPPCPPCPAPEFLGGPSVFLFPPKPKDTLMISRTPEVTCVVVDVSQEDPEVQFNWYVDGVEVHNAKTKPREEQFNSTYRVVSVLTVLHQDWLNGKEYKCKVSNKGLPSSIEKTISKAKGQPREPQVYTLPPCQEEMTKNQVSLWCLVKGFYPSDIAVEWESNGQPENNYKTTPPVLDSDGSFFLYSRLTVDKSRWQEGNVFSCSVMHEALHNHYTQKSLSLSLGKRSDVQLQESGGGLVQAGGSLRLSCAASGLTFSRCDMGWFRQAPGKEREFVARISANGASTHYADFVKGRFTISRDNAKNTVYLQMNYLKPEDTAVYICAAARVPVTWQLYDYWGQGTQVTVS
# chain 2: GPPCPPCPAPEFLGGPSVFLFPPKPKDTLMISRTPEVTCVVVDVSQEDPEVQFNWYVDGVEVHNAKTKPREEQFNSTYRVVSVLTVLHQDWLNGKEYKCKVSNKGLPSSIEKTISKAKGQPREPQVCTLPPSQEEMTKNQVSLSCAVKGFYPSDIAVEWESNGQPENNYKTTPPVLDSDGSFFLVSRLTVDKSRWQEGNVFSCSVMHEALHNHYTQKSLSLSLGKRSEVQLLESGGGLVQPGGSLRLSCAASGFTFGNYDMAWVRQAPGKRPEWVSSIDTGGDITHYADSVKGRFTISRDNAKNTLYLQMNSLRPEDTAVYWCATDEEYALGPNEFDYYGQGTLVTVSS
# B5: NIgG4D1A1(G4S)3 (Fc fusion)
# chain 1: DVQLQESGGGLVQAGGSLRLSCAASGLTFSRCDMGWFRQAPGKEREFVARISANGASTHYADFVKGRFTISRDNAKNTVYLQMNYLKPEDTAVYICAAARVPVTWQLYDYWGQGTQVTVSGGGGSGGGGSGGGGSGPPCPPCPAPEFLGGPSVFLFPPKPKDTLMISRTPEVTCVVVDVSQEDPEVQFNWYVDGVEVHNAKTKPREEQFNSTYRVVSVLTVLHQDWLNGKEYKCKVSNKGLPSSIEKTISKAKGQPREPQVYTLPPCQEEMTKNQVSLWCLVKGFYPSDIAVEWESNGQPENNYKTTPPVLDSDGSFFLYSRLTVDKSRWQEGNVFSCSVMHEALHNHYTQKSLSLSLGK
# chain 2: EVQLLESGGGLVQPGGSLRLSCAASGFTFGNYDMAWVRQAPGKRPEWVSSIDTGGDITHYADSVKGRFTISRDNAKNTLYLQMNSLRPEDTAVYWCATDEEYALGPNEFDYYGQGTLVTVSSGGGGSGGGGSGGGGSGPPCPPCPAPEFLGGPSVFLFPPKPKDTLMISRTPEVTCVVVDVSQEDPEVQFNWYVDGVEVHNAKTKPREEQFNSTYRVVSVLTVLHQDWLNGKEYKCKVSNKGLPSSIEKTISKAKGQPREPQVCTLPPSQEEMTKNQVSLSCAVKGFYPSDIAVEWESNGQPENNYKTTPPVLDSDGSFFLVSRLTVDKSRWQEGNVFSCSVMHEALHNHYTQKSLSLSLGK
# B6: CIgG4B2A1(G4S)2 (Fc fusion)
# chain 1: GPPCPPCPAPEFLGGPSVFLFPPKPKDTLMISRTPEVTCVVVDVSQEDPEVQFNWYVDGVEVHNAKTKPREEQFNSTYRVVSVLTVLHQDWLNGKEYKCKVSNKGLPSSIEKTISKAKGQPREPQVYTLPPCQEEMTKNQVSLWCLVKGFYPSDIAVEWESNGQPENNYKTTPPVLDSDGSFFLYSRLTVDKSRWQEGNVFSCSVMHEALHNHYTQKSLSLSLGKGGGGSGGGGSQVQLVESGGGLVQAGGSLRLSCAVFGSTFSNNVADWYRQAPGKQRELVARISASGATREYGDSVKGRFTISRDDAKNTMYLQMNNLKPEDTAVYRCHKIEWEDLSRKDYWGQGTQVTVS
# chain 2: GPPCPPCPAPEFLGGPSVFLFPPKPKDTLMISRTPEVTCVVVDVSQEDPEVQFNWYVDGVEVHNAKTKPREEQFNSTYRVVSVLTVLHQDWLNGKEYKCKVSNKGLPSSIEKTISKAKGQPREPQVCTLPPSQEEMTKNQVSLSCAVKGFYPSDIAVEWESNGQPENNYKTTPPVLDSDGSFFLVSRLTVDKSRWQEGNVFSCSVMHEALHNHYTQKSLSLSLGKGGGGSGGGGSEVQLLESGGGLVQPGGSLRLSCAASGFTFGNYDMAWVRQAPGKRPEWVSSIDTGGDITHYADSVKGRFTISRDNAKNTLYLQMNSLRPEDTAVYWCATDEEYALGPNEFDYYGQGTLVTVSS
# B7: CIgG4B2A1(G4S)1 (Fc fusion)
# chain 1: GPPCPPCPAPEFLGGPSVFLFPPKPKDTLMISRTPEVTCVVVDVSQEDPEVQFNWYVDGVEVHNAKTKPREEQFNSTYRVVSVLTVLHQDWLNGKEYKCKVSNKGLPSSIEKTISKAKGQPREPQVYTLPPCQEEMTKNQVSLWCLVKGFYPSDIAVEWESNGQPENNYKTTPPVLDSDGSFFLYSRLTVDKSRWQEGNVFSCSVMHEALHNHYTQKSLSLSLGKGGGGSQVQLVESGGGLVQAGGSLRLSCAVFGSTFSNNVADWYRQAPGKQRELVARISASGATREYGDSVKGRFTISRDDAKNTMYLQMNNLKPEDTAVYRCHKIEWEDLSRKDYWGQGTQVTVS
# chain 2: GPPCPPCPAPEFLGGPSVFLFPPKPKDTLMISRTPEVTCVVVDVSQEDPEVQFNWYVDGVEVHNAKTKPREEQFNSTYRVVSVLTVLHQDWLNGKEYKCKVSNKGLPSSIEKTISKAKGQPREPQVCTLPPSQEEMTKNQVSLSCAVKGFYPSDIAVEWESNGQPENNYKTTPPVLDSDGSFFLVSRLTVDKSRWQEGNVFSCSVMHEALHNHYTQKSLSLSLGKGGGGSEVQLLESGGGLVQPGGSLRLSCAASGFTFGNYDMAWVRQAPGKRPEWVSSIDTGGDITHYADSVKGRFTISRDNAKNTLYLQMNSLRPEDTAVYWCATDEEYALGPNEFDYYGQGTLVTVSS
# B8: CIgG4B2A1(G4S)3 (Fc fusion)
# chain 1: GPPCPPCPAPEFLGGPSVFLFPPKPKDTLMISRTPEVTCVVVDVSQEDPEVQFNWYVDGVEVHNAKTKPREEQFNSTYRVVSVLTVLHQDWLNGKEYKCKVSNKGLPSSIEKTISKAKGQPREPQVYTLPPCQEEMTKNQVSLWCLVKGFYPSDIAVEWESNGQPENNYKTTPPVLDSDGSFFLYSRLTVDKSRWQEGNVFSCSVMHEALHNHYTQKSLSLSLGKGGGGSGGGGSGGGGSQVQLVESGGGLVQAGGSLRLSCAVFGSTFSNNVADWYRQAPGKQRELVARISASGATREYGDSVKGRFTISRDDAKNTMYLQMNNLKPEDTAVYRCHKIEWEDLSRKDYWGQGTQVTVS
# chain 2: GPPCPPCPAPEFLGGPSVFLFPPKPKDTLMISRTPEVTCVVVDVSQEDPEVQFNWYVDGVEVHNAKTKPREEQFNSTYRVVSVLTVLHQDWLNGKEYKCKVSNKGLPSSIEKTISKAKGQPREPQVCTLPPSQEEMTKNQVSLSCAVKGFYPSDIAVEWESNGQPENNYKTTPPVLDSDGSFFLVSRLTVDKSRWQEGNVFSCSVMHEALHNHYTQKSLSLSLGKGGGGSGGGGSGGGGSEVQLLESGGGLVQPGGSLRLSCAASGFTFGNYDMAWVRQAPGKRPEWVSSIDTGGDITHYADSVKGRFTISRDNAKNTLYLQMNSLRPEDTAVYWCATDEEYALGPNEFDYYGQGTLVTVSS
# Target: mixture of three Der p 2 specific recombinant human IgE clones H10, H12, P4E (human) (UniProt P01854)
# Experiment: RBL-SX38 IgE displacement, FACS
# Chain of mixture of three Der p 2 specific recombinant human IgE clones H10, H12, P4E (human) (P01854 other isoform, or with tags, fused parts or gaps): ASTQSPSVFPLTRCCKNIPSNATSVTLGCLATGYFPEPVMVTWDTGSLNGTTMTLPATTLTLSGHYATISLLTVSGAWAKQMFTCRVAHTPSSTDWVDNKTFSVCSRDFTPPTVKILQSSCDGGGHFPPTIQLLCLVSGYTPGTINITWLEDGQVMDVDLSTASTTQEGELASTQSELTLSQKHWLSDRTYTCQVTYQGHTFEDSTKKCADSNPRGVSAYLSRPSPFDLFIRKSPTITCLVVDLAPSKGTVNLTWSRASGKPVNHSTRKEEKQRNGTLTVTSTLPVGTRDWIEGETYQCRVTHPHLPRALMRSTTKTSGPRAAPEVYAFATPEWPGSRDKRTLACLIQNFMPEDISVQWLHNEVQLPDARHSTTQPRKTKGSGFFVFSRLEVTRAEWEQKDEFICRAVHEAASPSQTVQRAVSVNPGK
EC50,Max effect/effect 1 µM,Binder
1.6 nM,97%,B1
1.4 nM,99%,B2
1.6 nM,100%,B3
,16%,B4
2 nM,99%,B5
1.6 nM,99%,B6
8.8 nM,93%,B7
1.5 nM,98%,B8
